Reference: patent US20120047604

Tested on: casein

GST-WKS1_Kinase fusion protein
in-gel kinase activity: The WKS1 Ser/Thr kinase domain (pfam00069) was confirmed to have kinase activity (FIG. 17)
